For 30 sequences, Kd results are on record in the Immune Epitope Database (IEDB).

pKd: −log10 of the molar value.

Experiment [1] addresses HLA-B*54:01. Nature of the experiment: IEDB peptide-MHC binding, purified MHC/competitive/radioactivity; filed as Kd, often an IC50 or EC50 that approximates it; ≥ and ≤ were set here for values at or beyond the usual limits of such assays.
The target in experiment [2] is HLA-B*53:01. Described as above.
Experiment [3] concerns the target HLA-B*35:01. Described as above.
For experiment [4], the target named is HLA-B*51:01. Described as above.
In experiment [5] the target is HLA-B*07:02. The description is as above.
Experiment [6] addresses HLA-A*26:01. Briefly: IEDB peptide-MHC binding, purified MHC/competitive/fluorescence; filed as Kd, often an IC50 or EC50 that approximates it; ≥ and ≤ were set here for values at or beyond the usual limits of such assays.
For experiment [7], the target named is HLA-A*02:02. Briefly: IEDB peptide-MHC binding, purified MHC/competitive/radioactivity; filed as Kd, often an IC50 or EC50 that approximates it; ≥ and ≤ were set here for values at or beyond the usual limits of such assays. The conditions noted are these: source organism: Homo sapiens.
Experiment [8] concerns the target HLA-A*68:02. The experiment is described as above.
For experiment [9], the target named is HLA-A*02:06. Described as above.
Experiment [10] has as its target HLA-B*08:01. The experiment is described as above.
The target in experiment [11] is HLA-A*33:01. The description is as above. The conditions noted are these: source organism: Dengue virus 4 Philippines/H241/1956.
Experiment [12] has as its target HLA-A*31:01. The experiment is described as above. The conditions noted are these: source organism: Dengue virus 4 Philippines/H241/1956.
Experiment [13] addresses HLA-A*03:01. Described as above. The conditions noted are these: source organism: Dengue virus 4 Philippines/H241/1956.
Experiment [14] concerns the target HLA-A*26:01. The experiment is described as above.
Experiment [15] deals with HLA-A*30:01. The experiment is described as above.
Experiment [16] has as its target HLA-A*30:02. Described as above.
The target in experiment [17] is HLA-A*01:01. The experiment is described as above.
The target of experiment [18] is HLA-A*32:01. Described as above.
The target of experiment [19] is HLA-A*29:02. The description is as above.
Where [20] appears, read: source organism: Vaccinia virus WR.
Where [21] appears, read: source organism: Dengue virus 2 Jamaica/1409/1983.
The mark [22] stands for this setting: source organism: Dengue virus 4 Philippines/H241/1956.
The mark [23] stands for this setting: source organism: Dengue virus 1 Brazil/97-11/1997.
[24] abbreviates: source organism: SARS coronavirus Tor2.
[25] abbreviates: source organism: Mammarenavirus brazilense.
Setting [26] is: source organism: Mammarenavirus guanaritoense.

For orientation: pKd means the negative decadic logarithm of the Kd, by convention in mol/L.

DPQNAAVNV: the pKd in experiment [1] (setting [20]) was no more than 4.49; in experiment [2] (setting [20]), no more than 4.43; in [3] (setting [20]) it was no more than 4.11; in [4] (setting [20]), 5.90; in experiment [5] (setting [20]), no more than 4.11.

DTAKAFAYL: the pKd in [6] (source organism: Escherichia coli) is 6.73.

Take ELILDRGYY: the pKd in experiment [6] (source organism: Bacillus cereus G9241) was 6.68.

Regarding KLREYEAAL, the pKd in experiment [7] is 7.56; in [8] (source organism: Homo sapiens), no more than 4.55.

Turning to SASSMVNGV, in experiment [8] (setting [21]), the pKd was 7.61.

For MVMTTTANWL, in [8] (setting [22]), the pKd was 8.19.

DTVTYKCPHI: in experiment [8] (source organism: Dengue virus 3 Martinique/1243/1999), the negative-log Kd (pKd) was 7.05.

Regarding SLPLPNFSSL, the pKd in [9] (source organism: Homo sapiens) was 6.19; in experiment [8] (source organism: Homo sapiens), 8.92.

Consider QLKGQGKSRL, for which the pKd in [9] (source organism: Homo sapiens) is no more than 4.37; in experiment [8] (source organism: Homo sapiens), no more than 4.22.

Turning to MSIPATLFV, the pKd is 7.92 in experiment [9] (setting [23]) and 9.20 in experiment [8] (setting [23]).

Regarding HPGFTIMAAI, the pKd in [2] (setting [21]) was 7.18; in [4] (setting [21]), 5.24; in [5] (setting [21]) it was 7.53.

Turning to YVVIGLLFMI, the pKd in experiment [9] (setting [23]) is 6.85; in [8] (setting [23]), 6.99.

SSALLWMASV: the pKd in experiment [8] (setting [23]) is 7.33.

Regarding YRPLHFQYV, the pKd in experiment [10] (setting [20]) was 6.61.

For GFMRFFQLL, the pKd in experiment [10] (setting [20]) is 8.62.

With SPKFTTSLSL, the pKd in experiment [1] (setting [24]) was no more than 4.54; in experiment [2] (setting [24]), 5.89; in experiment [3] (setting [24]), 5.10; in [4] (setting [24]), 5.96; in experiment [5] (setting [24]) it was 8.08.

In the case of AAGRKSLTL, in [10] (setting [21]), the pKd is 6.68.

Regarding MLLNRFTTR, the pKd in experiment [11] was 7.83; in experiment [12], 8.82; in [10] (setting [22]), 5.61; in experiment [13] it was 7.92.

Take QPGLLSYVI: the pKd in experiment [1] (setting [25]) is 5.30; in experiment [2] (setting [25]) it was 6.51; in [3] (setting [25]) it was 5.96; in experiment [4] (setting [25]) it was 5.65; in experiment [5] (setting [25]), 4.91.

Take ESPARLASAI: the values for the pKd in [14] (setting [22]) and in experiment [8] (setting [22]) were 5.35 and 6.30, respectively.

SGMRRQEQI: the pKd in experiment [10] (setting [20]) is 7.78.

Turning to KPTLDFELI, the pKd in experiment [2] (setting [21]) is 6.55; in [4] (setting [21]) it was no more than 4.51.

Take WMIRILIGFL: in experiment [10] (source organism: Dengue virus 4 Dominica/814669/1981), the pKd is 6.77.

Consider NPIVLHNGM, for which the pKd is no more than 4.11 in [1] (setting [25]); 4.98 in [2] (setting [25]); 6.36 in experiment [3] (setting [25]); no more than 4.49 in experiment [4] (setting [25]); 5.75 in [5] (setting [25]).

For the sequence TAIANQAAIL, the pKd in [10] (setting [23]) was 6.37.

Consider YTPEGIIPTL, for which the values for the pKd in experiment [9] (setting [22]) and in experiment [8] (setting [22]) were 7.67 and 6.58, respectively.

For the sequence TSAGVNMCTL, in [8] (setting [23]), the pKd was 8.16.

Turning to NLAERFCTE, the pKd in experiment [10] (setting [20]) was 5.72.

Turning to LINERDYSRY, the pKd in [15] (setting [25]) was no more than 4.15; in [16] (setting [25]), 6.20; in experiment [17] (setting [25]), 5.99; in experiment [18] (setting [25]), no more than 4.16; in experiment [19] (setting [25]), 4.78; in experiment [14] (setting [25]), 5.71.

For the sequence ESALNISGY, the pKd in [15] (setting [26]) is no more than 4.17; in [16] (setting [26]) it was 6.13; in [17] (setting [26]), 7.43; in experiment [18] (setting [26]), no more than 4.11; in [19] (setting [26]), no more than 4.45; in experiment [14] (setting [26]) it was 6.93.
